From patent US20250332277A1 (Eli Lilly, published 2025) come the findings set out here.

Test [1] has as its target T1, recombinant human PTK7 (Acro Biosystems Cat. No. PT7-H52H3) (human, UniProt Q13308 31-704).
T1 construct: Bought recombinant protein; also called human PTK7 analyte
T1 sequence: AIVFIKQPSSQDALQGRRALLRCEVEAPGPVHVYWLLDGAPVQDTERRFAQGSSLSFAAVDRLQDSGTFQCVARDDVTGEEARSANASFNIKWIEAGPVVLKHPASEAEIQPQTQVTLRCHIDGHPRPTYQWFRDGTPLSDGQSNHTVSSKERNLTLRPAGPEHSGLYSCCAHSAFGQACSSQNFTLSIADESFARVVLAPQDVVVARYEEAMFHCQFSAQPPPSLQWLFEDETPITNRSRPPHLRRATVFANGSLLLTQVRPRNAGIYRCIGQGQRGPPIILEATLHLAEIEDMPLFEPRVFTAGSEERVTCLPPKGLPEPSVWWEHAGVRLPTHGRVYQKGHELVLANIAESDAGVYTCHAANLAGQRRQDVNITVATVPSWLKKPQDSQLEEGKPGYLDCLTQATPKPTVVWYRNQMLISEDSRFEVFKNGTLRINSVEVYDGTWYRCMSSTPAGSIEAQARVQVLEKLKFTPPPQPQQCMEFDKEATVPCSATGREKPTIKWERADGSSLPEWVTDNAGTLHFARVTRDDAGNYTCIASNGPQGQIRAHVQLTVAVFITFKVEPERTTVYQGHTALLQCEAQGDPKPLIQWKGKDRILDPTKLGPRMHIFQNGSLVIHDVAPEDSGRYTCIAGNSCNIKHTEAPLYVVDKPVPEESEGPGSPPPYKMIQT
Nature of the test: SPR, Biacore 8K+, ADC captured by anti-human Fc, human PTK7 as analyte, 37 C, 1:1 model. The protocol:
A Biacore 8K+ instrument (Cytiva, Marlborough, MA) was used to determine kinetics and affinity parameters for the binding interactions of ADCs binding to recombinant human PTK7 (Acro Biosystems Cat. No. PT7-H52H3, Newark, DE).
In each analysis cycle, a different ADC was captured on flow cell 2 of each channel by injecting a 5 μg/mL solution at 10 μL/min for 2 minutes. After capture, the same analyte was injected on flow cells 1 and 2 in all 8 channels for 2 minutes at 30 μL/min and dissociation was monitored for 10 minutes. After dissociation, all surfaces were regenerated with three consecutive 1-minute injections of 75 mM phosphoric acid at 10 μL/min. ADC capture and analyte cycles were repeated to obtain human PTK7 analyte binding of each ADC at analyte concentrations of 0, 2.47, 7.41, 22.2, 66.7, 200, and 600 nMs.
Sensorgram data were reference subtracted and blank subtracted, then globally fit with the default 1:1 binding model in Biacore Insight Evaluation Software v3.0.12.15655, as shown in Table 4.
(In general: Surface plasmon resonance follows binding to a sensor surface in real time, without labels.)

Test [2] concerns the target T2, human PTK-7 on cells (OV90-PTK-7, NCI-H446, OVCAR-3) (human, UniProt Q13308 31-1070).
T2 sequence: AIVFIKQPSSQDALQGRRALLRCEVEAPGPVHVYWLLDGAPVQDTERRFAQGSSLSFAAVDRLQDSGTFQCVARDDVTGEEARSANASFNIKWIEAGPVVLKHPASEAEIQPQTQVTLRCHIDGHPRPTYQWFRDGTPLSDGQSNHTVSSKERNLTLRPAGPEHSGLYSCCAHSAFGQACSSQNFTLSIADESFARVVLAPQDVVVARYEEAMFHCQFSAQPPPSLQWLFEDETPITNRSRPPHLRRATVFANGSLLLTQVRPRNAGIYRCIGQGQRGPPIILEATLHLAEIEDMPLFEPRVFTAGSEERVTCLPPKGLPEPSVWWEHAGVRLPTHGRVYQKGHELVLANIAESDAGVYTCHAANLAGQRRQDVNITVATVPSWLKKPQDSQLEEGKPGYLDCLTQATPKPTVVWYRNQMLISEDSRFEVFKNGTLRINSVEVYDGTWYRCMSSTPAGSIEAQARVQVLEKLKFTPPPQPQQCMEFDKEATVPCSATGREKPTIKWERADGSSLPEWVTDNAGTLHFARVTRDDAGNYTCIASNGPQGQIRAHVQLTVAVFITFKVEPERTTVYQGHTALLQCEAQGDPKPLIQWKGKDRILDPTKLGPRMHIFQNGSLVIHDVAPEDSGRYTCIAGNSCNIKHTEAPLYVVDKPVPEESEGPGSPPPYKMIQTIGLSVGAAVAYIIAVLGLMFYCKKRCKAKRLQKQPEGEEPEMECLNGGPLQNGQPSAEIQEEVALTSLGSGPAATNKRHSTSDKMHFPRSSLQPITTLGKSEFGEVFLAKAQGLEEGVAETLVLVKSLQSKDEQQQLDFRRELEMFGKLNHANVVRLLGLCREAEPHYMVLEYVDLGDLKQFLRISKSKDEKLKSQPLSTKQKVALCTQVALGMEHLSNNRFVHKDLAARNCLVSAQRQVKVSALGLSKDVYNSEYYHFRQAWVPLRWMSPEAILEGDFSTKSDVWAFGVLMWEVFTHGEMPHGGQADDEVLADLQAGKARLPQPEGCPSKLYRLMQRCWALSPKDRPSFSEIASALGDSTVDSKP
The test can be described thus: cell-based or functional assay.

B1: Ab4-PSAR10-VA-exatecan (other)
heavy: EVQLVESGGGLVKPGGSLRLSCAASGFTFSSYSMNWVRQAPGKGLEWVSSIDSSSSFIYYADSVKGRFTISRDNAKNSLYLQMNSLRAEDTAVYYCARGTGLFDFWGQGTLVTVSSASTKGPSVFPLAPSSKSTSGGTAALGCLVKDYFPEPVTVSWNSGALTSGVHTFPAVLQSSGLYSLSSVVTVPSSSLGTQTYICNVNHKPSNTKVDKRVEPKSCDKTHTCPPCPAPEAAGGPSVFLFPPKPKDTLMISRTPEVTCVVVSVSHEDPEVKFNWYVDGVEVHNAKTKPREEQYNSTYRVVSVLTVLHQDWLNGKEYKCKVSNKALPAPIEKTISKAKGQPREPQVYTLPPSREEMTKNQVSLTCLVKGFYPSDIAVEWESNGQPENNYKTTPPVLDSDGSFFLYSKLTVDKSRWQQGNVFSCSVMHEALHNHYTQKSLSLSPGK
light: EIVLTQSPGTLSLSPGERATLSCRASQSFSSSYLAWYQQKPGQAPRLLIYGASSRATGIPDRFSGSGSGTDFTLTISRLEPEDFAVYYCQQYGRTPWTFGQGTKVEIKRTVAAPSVFIFPPSDEQLKSGTASVVCLLNNFYPREAKVQWKVDNALQSGNSQESVTEQDSKDSTYSLSSTLTLSKADYEKHKVYACEVTHQGLSSPVTKSFNRGEC
modifications: PSAR10-VA-exatecan linker-payload (Formula XV) on cysteine thiols after full reduction of the antibody (DAR 8 procedure); positions not stated for this ADC
notes: Antibody-drug conjugate of Ab4; also called Ab4-VA-Exatecan
As usually defined, the Kd is a measure of binding affinity in units of concentration. As a reminder, the koff is the rate constant with which the complex falls apart. The kon is the second-order rate constant of association. For B1, in test [1], the Kd amounted to 101 nM, the koff amounted to 0.0372 s⁻¹ and the kon came out at 368000 M⁻¹ s⁻¹. The “Cytotoxicity IC50, OVCAR-3 cells (CellTiter-Glo, 7 days)” value in test [2] worked out at 2.02 nM.
